Drawing on PMC9017247, this text covers Kd and stoichiometry N (rGRFT per spike) for one substance.

One may read the Kd as the constant that tells how readily two partners part at equilibrium.

For test [1], the target named is recombinant SARS-CoV-2 spike protein (SARS-CoV-2) (UniProt P0DTC2). Description: ITC; MicroCal ITC200; 50 uM rGRFT injected (2 uL, 120 s intervals) into the cell with 280 uL of 1 uM spike protein; 1x PBS, pH 7.4.
Test [2] shares this target. Description: QCM-D; spike protein (400 ug/mL) immobilised by EDC/NHS on an 11-MUA carboxylated gold sensor, ethanolamine-blocked; 0.5-10 uM rGRFT flowed in turn at 20 uL/min, 1x PBS.

Regarding “recombinant griffithsin lectin protein (rGRFT) (from UniProt P84801 1-121) (natural protein)”, the figures for the Kd in test [1] and in test [2] were 9.9 µM and 1.6 µM, respectively. Moreover, the stoichiometry N (rGRFT per spike) in test [1] was 6.
